The text below walks through data of article PMC9160250, “Nuclear Vav3 is required for polycomb repression complex-1 activity in B-cell lymphoblastic leukemogenesis” (Nature Communications, 2022).

For the assay, the target named is T1, Bmi1 (mouse (endogenous in Ba/F3 cells and …, UniProt P25916 1-324)).
T1 construct: Bmi1, mouse, endogenous protein of Ba/F3 cells and of primary murine B-cell progenitors; also called PCGF4; source: endogenous, Ba/F3 cells (cytoplasmic and nuclear fractions; fixed cells) and murine B-cell progenitors (fixed cells)
T1 sequence (looked up): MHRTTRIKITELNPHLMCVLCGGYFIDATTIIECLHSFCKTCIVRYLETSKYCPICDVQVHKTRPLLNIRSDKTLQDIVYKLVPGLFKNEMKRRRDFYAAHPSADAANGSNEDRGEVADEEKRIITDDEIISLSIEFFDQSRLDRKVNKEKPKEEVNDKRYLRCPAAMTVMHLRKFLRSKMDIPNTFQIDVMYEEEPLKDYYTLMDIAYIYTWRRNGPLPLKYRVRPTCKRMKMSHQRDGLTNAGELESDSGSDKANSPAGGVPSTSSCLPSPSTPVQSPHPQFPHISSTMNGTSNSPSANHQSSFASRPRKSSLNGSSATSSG
In words: proximity ligation; Duolink PLA in fixed, permeabilised primary murine B-cell progenitors on fibronectin-coated slides (empty vector or p190-BCR-ABL transduced; WT, Rac2-/-, or Vav3-/- transduced with empty vector, Vav3 FL or Vav3 N369A); confocal microscopy. Conditions: partners not purified.

B1: Vav3 NA (N369A mutant which loses the GEF activity) (natural protein, UniProt Q9R0C8 1-847, looked up)
chain: MEPWKQCAQWLIHSKVLPPNHRVTWDSAQVFDLAQTLRDGVLLCQLLNNLRPHSINLKEINLRPQMSQFLCLKNIRTFLAACCDTFGMRKSELFEAFDLFDVRDFGKVIETLSRLSRTPIALATGIRPFPTEESINDEDIYKGLPDLIDETRVEDEEDLYDCVYGEDEGGEVYEDLMKAEEAQQPKSQENDIRSCCLAEIRQTEEKYTETLESIEKYFMAPLKRFLTAAEFDSVFINIPDLVKVHRSLMQEIHDSIVNKDDQNLYQVFINYKERLVIYGQYCSGVESAISNLDYISKTKEDVKLKLEECSKRANNGKFTLRDLLVVPMQRVLKYHLLLQELVKHTHDPMEKANLKLALDAMKDLAQYVAEVKRDNETLREIKQFQLSIENLNQPVLLFGRPQGDGEIRITTLDKHTKQERHIFLFDLAVIVCKRKGDNYEMKEIIDLQQYKIANNPTTDKENKKWSYGFYLIHTQGQNGLEFYCKTKDLKKKWLEQFEMALSNIRPDYADSNFHDFKMHTFTRVTSCRVCQMLLRGTFYQGYLCFKCGAKAHKECLGRVDNCGRVNSVEQGPFKPPEKRTNGLRRASRQVDPGLPKMQVIRNYTGTPAPGLHEGPPLHIQAGDTVELLRGDAHSVFWQGRNLASGEVGFFPSDAVKPSPCVPKPVDYSCQPWYAGPMERLQAETELINRVNSTYLVRHRTKESGEYAISIKYNNEAKHIKILTRDGFFHIAENRKFKSLMELVEYYKHHSLKEGFRTLDTTLQFPYKEPEQPAGQRGNRTGNSLLSPKVLGIAIARYDFCARDMRELSLLKGDMVKIYTKMSANGWWRGEVNGRVGWFPSTYVEEDE
notes: Vav3 with N369A; also called Vav3(N369A); Vav3N369A; source: lentiviral vector pCDH-EF1-MCS-IRES-GFP, transduced Vav3-/- leukemic murine B-cell progenitors (fixed cells)
Regarding B1, the “fold reduction of the PLA signal against full-length Vav3” value is about 2 fold.
